This is an account of results in patent US20190106460A1 (published 2019).

Test [1] addresses T1, HisβTrCP/Skp1 and HisβTrCP/GSTSkp1 (immobilised on NTA Biacore chip) (UniProt Q9Y297 175-605; P63208 1-163).
T1 construct: SPR: KD values from both surfaces (with or without the GST moiety) were averaged to give the apparent KD; also called βTrCP surfaces
The test is described as follows: SPR (Biacore T200), single cycle run up to 1e-6 M, steady-state fit of the run shown; Rmax 4.264 RU, Chi² 0.00601 RU² [B]. An excerpt:
(§1) As βTrCP was His tagged, an NTA sensor chip was used. This sensor chip has a dextran surface matrix with immobilized nitrilotriacetic acid (NTA) which provides a means of capturing polyHis-tagged proteins through Nickel chelation. It was hoped that addition of Ni⁺ would orient the protein in a specific (and hopefully active) manner as it is covalently immobilised via amine coupling. Addition of EDC:NHS (N-ethyl-N′-(3-[…])-carbodiimide:N-hydroxysuccinimide) converts carboxyl groups on the dextran sensor chip surface to succinamide esters which readily form covalent bonds with primary amines. Each chip contains four flow cells (each a separate surface) which means that compounds/peptides can be passed over different forms of βTrCP and a reference surface simultaneously. If binding to βTrCP is occurring, responses should be the same (accounting for differences in density of surface etc) on each surface.
(§2) Small molecule/peptide samples to be assayed for binding to βTrCP surfaces, were provided as 10 mM stocks in 100% DMSO. All samples were tested in running buffer composed of 10 mM HEPES pH 7.4, 150 mM NaCl, 50 μM EDTA, 0.005% p20, and 1% DMSO. Serial dilutions were made using running buffer. […] KD values calculated from binding curves from both surfaces (with or without the GST moiety) were averaged to produce apparent KD's for each sample tested.
Background: Surface plasmon resonance follows binding to a sensor surface in real time, without labels.

For another test, the target named is Fbw7 (UniProt Q969H0 263-707, limits assumed). The test is described as follows: cell-based or functional assay.
The target of the next test is Skp2 (UniProt Q13309 1-424, limits assumed). The test is described as follows: cell-based or functional assay.
Test [2] has as its target T2, βTrCP (tag cleaved and complexed with Skp1) (UniProt Q9Y297 175-605; P63208 1-163).
T2 construct: Protein of the FP assay (0.035 µM); also called Beta Transducin repeat-containing protein; βTrCP/Skp1
The test is described as follows: FP competition vs fluorescein-IκB peptide.

Test [3] addresses T1, HisβTrCP/Skp1 and HisβTrCP/GSTSkp1 …. The test can be described thus: SPR, Biacore T200, βTrCP/Skp1 immobilised.
Description: as §1
Small molecule/peptide samples to be assayed for binding to βTrCP surfaces, were provided as 10 mM stocks in 100% DMSO. All samples were tested in running buffer composed of 10 mM HEPES pH 7.4, 150 mM NaCl, 50 μM EDTA, 0.005% p20, and 1% DMSO. Serial dilutions were made using running buffer. Samples were tested over varying concentrations up to a maximum of 100 μM. Two methods of measuring the SPR response were employed: single cycle kinetics which measures the response across different concentrations of sample within a single cycle (no regeneration of surface) and a method that measures the response at a given concentration in each cycle and includes a regeneration wash after each sample injection. The regeneration solution used was the same as running buffer, but included 500 mM NaCl. Data was fitted using Biacore T200 evaluation software. KD values calculated from binding curves from both surfaces (with or without the GST moiety) were averaged to produce apparent KD's for each sample tested.

Test [4] concerns the target T2, βTrCP (tag cleaved and complexed with …). The test can be described thus: FP competition vs fluorescein-IκB peptide. This is another data set of the same source.
Test [5] has as its target T1, HisβTrCP/Skp1 and HisβTrCP/GSTSkp1 …. The test is described as follows: SPR (Biacore T200), single cycle run up to 1e-6 M, steady-state fit of the run shown; Rmax 1.318 RU, Chi² 0.00773 RU² [D].
Description: as §1, §2

The target in test [6] is T3, βTrCP (tag cleaved and complexed with Skp1) (UniProt Q9Y297 175-605; P63208 1-163).
T3 construct: Protein of the fluorescence polarisation assay, 0.035 µM; also called Beta Transducin repeat-containing protein; βTrCP/Skp1
The test is described as follows: FP competition, 10 nM fluorescein-IκB peptide on βTrCP/Skp1. How it is done: Binding of the compounds to βTrCP was assessed using a fluorescence polarisation (FP) binding assay. The FP assay is an in vitro binding assay using a fluorescein-tagged IkB peptide at 10 nM to mimic substrate binding to βTrCP, and was performed as described above.

Test [7] deals with T1, HisβTrCP/Skp1 and HisβTrCP/GSTSkp1 …. The test can be described thus: SPR (Biacore T200), single cycle run up to 1e-6 M, steady-state fit of the run shown; Rmax 2.156 RU, Chi² 0.00730 RU² [E].
Description: as §1, §2

Test [8] has the same target. The test can be described thus: SPR (Biacore T200), single cycle run up to 1e-6 M, steady-state fit of the run shown; Rmax 3.459 RU, Chi² 0.00452 RU² [C].
Description: as §1, §2

Starred links: 1 amine or outer side, 2 acyl side, 3 side chain; linkers in the order of their positions; H or OH if unused. Non-standard residues stand in square brackets, D forms with d. No end group written: not given here. *: point of attachment. Benzenesulfonyl(4-OMe) = COc1ccc(S(=O)(=O)*)cc1; E(Me) = COC(=O)CC[C@H](N[*:1])C(=O)[*:2]; Phe(3-Cl) = N[C@@H](Cc1cccc(Cl)c1)C(=O)O; Phe(3-F) = N[C@@H](Cc1cccc(F)c1)C(=O)O; Tos = Cc1ccc(S(=O)(=O)*)cc1

Skp2, sequence (Q13309 whole entry): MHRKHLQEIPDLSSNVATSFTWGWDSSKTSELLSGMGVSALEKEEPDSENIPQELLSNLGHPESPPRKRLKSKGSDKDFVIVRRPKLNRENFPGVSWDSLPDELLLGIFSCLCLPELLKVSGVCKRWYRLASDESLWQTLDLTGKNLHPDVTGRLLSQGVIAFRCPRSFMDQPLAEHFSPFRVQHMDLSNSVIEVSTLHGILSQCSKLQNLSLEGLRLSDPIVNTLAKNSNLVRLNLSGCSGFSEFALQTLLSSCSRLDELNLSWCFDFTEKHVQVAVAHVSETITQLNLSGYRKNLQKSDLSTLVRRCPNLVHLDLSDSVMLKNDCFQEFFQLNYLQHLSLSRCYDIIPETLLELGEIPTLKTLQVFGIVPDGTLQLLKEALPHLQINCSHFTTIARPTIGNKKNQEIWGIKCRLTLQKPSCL
T1 sequence (Q9Y297 175-605, chain 1 of 2): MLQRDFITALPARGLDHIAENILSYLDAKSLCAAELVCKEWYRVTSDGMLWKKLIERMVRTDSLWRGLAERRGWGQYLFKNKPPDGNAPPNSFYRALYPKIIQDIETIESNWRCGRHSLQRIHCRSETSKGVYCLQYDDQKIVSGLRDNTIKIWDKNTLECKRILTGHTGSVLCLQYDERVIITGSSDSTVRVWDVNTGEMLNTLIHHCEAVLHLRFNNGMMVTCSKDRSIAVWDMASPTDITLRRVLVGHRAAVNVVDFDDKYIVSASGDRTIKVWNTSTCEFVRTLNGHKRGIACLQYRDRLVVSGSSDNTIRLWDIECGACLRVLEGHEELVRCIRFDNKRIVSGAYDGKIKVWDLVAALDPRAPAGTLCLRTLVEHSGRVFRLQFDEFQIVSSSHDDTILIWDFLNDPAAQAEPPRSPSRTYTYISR
T1 sequence (P63208 whole entry, chain 2 of 2): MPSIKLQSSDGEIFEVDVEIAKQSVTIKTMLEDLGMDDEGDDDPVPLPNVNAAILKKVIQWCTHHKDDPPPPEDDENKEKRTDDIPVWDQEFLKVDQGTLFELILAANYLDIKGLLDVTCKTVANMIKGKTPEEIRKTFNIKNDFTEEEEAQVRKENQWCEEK
Fbw7, sequence (Q969H0 263-707 limits assumed): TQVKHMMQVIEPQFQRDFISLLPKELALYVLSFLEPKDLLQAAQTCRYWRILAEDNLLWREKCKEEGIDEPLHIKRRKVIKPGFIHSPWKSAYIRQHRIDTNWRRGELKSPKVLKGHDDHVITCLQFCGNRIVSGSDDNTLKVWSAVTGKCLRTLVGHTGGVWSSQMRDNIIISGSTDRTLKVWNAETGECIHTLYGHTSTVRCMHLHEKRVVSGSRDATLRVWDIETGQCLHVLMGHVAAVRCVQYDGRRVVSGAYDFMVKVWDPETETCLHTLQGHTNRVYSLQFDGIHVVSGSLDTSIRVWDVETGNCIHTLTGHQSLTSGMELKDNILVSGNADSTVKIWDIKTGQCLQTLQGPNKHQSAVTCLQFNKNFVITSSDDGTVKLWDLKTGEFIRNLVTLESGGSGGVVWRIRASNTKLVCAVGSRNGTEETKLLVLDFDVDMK

B1: Ts-dEGF(3Cl)WE-NH2 (peptide)
peptide: Tos-[dD]EG[Phe(3-Cl)]WE-NH2
SMILES: Cc1ccc(S(=O)(=O)N[C@H](CC(=O)O)C(=O)N[C@@H](CCC(=O)O)C(=O)NCC(=O)N[C@@H](Cc2cccc(Cl)c2)C(=O)N[C@@H](Cc2c[nH]c3ccccc23)C(=O)N[C@@H](CCC(=O)O)C(N)=O)cc1
notes: also called UBP034
Regarding B1, the dissociation constant (Kd) in test [1] turned out to be 80.8 nM. In the test with Fbw7, the “% Inhibition Fbw7 @ 10 µM” value is 8% and the “% Inhibition Fbw7 @ (100 µM)” value is 6%. In addition, in the test with Skp2, the “% Inhibition Skp2 @ 10 µM” value was 0% and the “% Inhibition Skp2 @ (100 µM)” value is 0%. Besides, the half-inhibitory concentration (IC50) in test [2] stood at 10 nM. Binding in test [3] was characterised by a dissociation constant (Kd) of 154 nM. The molecule further yielded an IC50 in test [4] of 10 nM.

B2: Ts-DEGF(3F)WE-NH2 (peptide)
peptide: Tos-DEG[Phe(3-F)]WE-NH2
SMILES: Cc1ccc(S(=O)(=O)N[C@@H](CC(=O)O)C(=O)N[C@@H](CCC(=O)O)C(=O)NCC(=O)N[C@@H](Cc2cccc(F)c2)C(=O)N[C@@H](Cc2c[nH]c3ccccc23)C(=O)N[C@@H](CCC(=O)O)C(N)=O)cc1
notes: also called UBP024
Consider B2, for which, in the test with Fbw7, the “% Inhibition Fbw7 @ 10 µM” value worked out at 0% and the “% Inhibition Fbw7 @ (100 µM)” value amounted to 8%. In addition, in the test with Skp2, the “% Inhibition Skp2 @ 10 µM” value came to 0% and the “% Inhibition Skp2 @ (100 µM)” value is 7%. Moreover, in test [2], the IC50 was 18 nM. Also, the Kd in test [3] is 19 nM. In test [5], this molecule registered an equilibrium dissociation constant (Kd) of 40 nM. The IC50 in test [4] was 18 nM.

In test [6], DEGFFE-NH2 [DEGFFE-NH2] showed an IC50 of 43600 nM.

On to Tos-[dD]EG[Phe(3-F)]W[E(Me)]-NH2 (also called UBP032) [Ts-dEGF(3F)WE(Me)-NH2], for which the “% Inhibition Fbw7 @ 10 µM” value in the test with Fbw7 came to 4%. In the test with Fbw7, the “% Inhibition Fbw7 @ (100 µM)” value was found to be 10%. Moreover, the “% Inhibition Skp2 @ 10 µM” value in the test with Skp2 was found to be 0%. Further, the “% Inhibition Skp2 @ (100 µM)” value with Skp2 was determined as 0%. The IC50 in [2] and in test [4] was 22 nM in each case. Moreover, the Kd in [3] is 170 nM; in [7], 108 nM.

B3: 4-(MeO)-PhSO2-dEGF(3F)WE-NH2 (peptide)
peptide: {Benzenesulfonyl(4-OMe)}-[dD]EG[Phe(3-F)]WE-NH2
SMILES: COc1ccc(S(=O)(=O)N[C@H](CC(=O)O)C(=O)N[C@@H](CCC(=O)O)C(=O)NCC(=O)N[C@@H](Cc2cccc(F)c2)C(=O)N[C@@H](Cc2c[nH]c3ccccc23)C(=O)N[C@@H](CCC(=O)O)C(N)=O)cc1
notes: also called UBP022
For B3, in the test with Fbw7, the “% Inhibition Fbw7 @ 10 µM” value stood at 0% and the “% Inhibition Fbw7 @ (100 µM)” value worked out at 18%. Moreover, in the test with Skp2, the “% Inhibition Skp2 @ 10 µM” value turned out to be 7% and the “% Inhibition Skp2 @ (100 µM)” value was 12%. The molecule also displayed an IC50 in test [2] of 17 nM. Further, the Kd in test [8] was 49.8 nM. In addition, the Kd in [3] stood at 48 nM. For the same molecule, the IC50 in test [4] was found to be 17 nM.

Usually Kd stands for the constant that tells how readily two partners part at equilibrium. Usually IC50 stands for the point on the concentration scale where inhibition reaches its midpoint.
